Columns and labels:
[1] = tested on: MCP-1 promoter; experiment: NHR-promoter luciferase screen, MCP-1 promoter; format: cell-based; conditions: for Normalized Luc. act., normalized to control / Luc. act., normalized to lacZ: MCP-1 promoter reporter; for Normalized Luc. act., normalized to control: HR without or with its ligand, relative to control; for Luc. act., normalized to lacZ: hormone receptor (HR) without or with its ligand; for mMCP-1 promoter reporter activity: transcription factor +/- ligand, control = 1.00
Method in brief: (§1)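 CV-1 cells were co-transfected with 50 ng NHR (homodimer or NHR/RXR heterodimer), 100 ng promoter-luciferase construct and 50 ng LacZ. Luciferase was normalized to LacZ and to a no-NHR/no-ligand control.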

[2] = tested on: hMyoD promoter; experiment: NHR-promoter luciferase screen, hMyoD promoter; format: cell-based, human; conditions: for Luc. act., normalized to lacZ / Normalized Luc. act., normalized to control: MyoD promoter reporter, co-transfected HR, without or with its ligand; for Normalized Luc. act., normalized to control: relative to control; for luciferase activity normalized to lacZ activity and to a control, hMyoD: hMyoD promoter-luciferase, CV-1 cells, NHR +/- ligand, control = 1.00
Method in brief: as §1

[3] = tested on: mDio1 promoter; experiment: NHR-promoter luciferase screen, mDio1 promoter; format: cell-based, mouse; conditions: for Luc. act., normalized to lacZ / Normalized Luc. act., normalized to control: Dio1, HR component without or with its ligand; for mDio1 promoter reporter activity: transcription factor +/- ligand, control = 1.00
Method in brief: as §1

| Molecule | Normalized Luc. act., normalized to control [1] | Luc. act., normalized to lacZ [1] | mMCP-1 promoter reporter activity [1] | Luc. act., normalized to lacZ [2] | Normalized Luc. act., normalized to control [2] | luciferase activity normalized to lacZ activity and to a control, hMyoD [2] | Luc. act., normalized to lacZ [3] | Normalized Luc. act., normalized to control [3] | mDio1 promoter reporter activity [3] |
| --- | --- | --- | --- | --- | --- | --- | --- | --- | --- |
| RXRg: Retinoic X Receptor γ (NR2B3), cDNA driver (protein, UniProt P48443 1-463, looked up) Retinoic acid receptor …: MYGNYSHFMKFPAGYGGSPGHTGSTSMSPSAALSTGKPMDSHPSYTDTPVSAPRTLSAVGTPLNALGSPYRVITSAMGPPSGALAAPPGINLVAPPSSQLNVVNSVSSSEDIKPLPGLPGIGNMNYPSTSPGSLVKHICAICGDRSSGKHYGVYSCEGCKGFFKRTIRKDLIYTCRDNKDCLIDKRQRNRCQYCRYQKCLVMGMKREAVQEERQRSRERAESEAECATSGHEDMPVERILEAELAVEPKTESYGDMNMENSTNDPVTNICHAADKQLFTLVEWAKRIPHFSDLTLEDQVILLRAGWNELLIASFSHRSVSVQDGILLATGLHVHRSSAHSAGVGSIFDRVLTELVSKMKDMQMDKSELGCLRAIVLFNPDAKGLSNPSEVETLREKVYATLEAYTKQKYPEQPGRFAKLLLRLPALRSIGLKCLEHLFFFKLIGDTPIDTFLMEMLETPLQIT | 2.0 | 212.4 | 1.98 | 67.6 | 1.1 | 1.07 | 6.6 | 1.5 | 1.48 |
| PXR: Pregnane X Receptor (NR1I2), cDNA driver (protein, UniProt O75469 1-434, looked up) Nuclear receptor subfamily 1 …: MEVRPKESWNHADFVHCEDTESVPGKPSVNADEEVGGPQICRVCGDKATGYHFNVMTCEGCKGFFRRAMKRNARLRCPFRKGACEITRKTRRQCQACRLRKCLESGMKKEMIMSDEAVEERRALIKRKKSERTGTQPLGVQGLTEEQRMMIRELMDAQMKTFDTTFSHFKNFRLPGVLSSGCELPESLQAPSREEAAKWSQVRKDLCSLKVSLQLRGEDGSVWNYKPPADSGGKEIFSLLPHMADMSTYMFKGIISFAKVISYFRDLPIEDQISLLKGAAFELCQLRFNTVFNAETGTWECGRLSYCLEDTAGGFQQLLLEPMLKFHYMLKKLQLHEEEYVLMQAISLFSPDRPGVLQHRVVDQLQEQFAITLKSYIECNRPQPAHRFLFLKIMAMLTELRSINAQHTQRLLRIQDIHPFATPLMQELFGITGS | 2.0 | 209.7 | 1.96 | 50.6 | 0.8 | 0.80 | 11.3 | 2.5 | 2.52 |
| RXRb: Retinoic X Receptor β (NR2B2), cDNA driver (protein, UniProt P28702 1-533, looked up) Retinoic acid receptor …: MSWAARPPFLPQRHAAGQCGPVGVRKEMHCGVASRWRRRRPWLDPAAAAAAAVAGGEQQTPEPEPGEAGRDGMGDSGRDSRSPDSSSPNPLPQGVPPPSPPGPPLPPSTAPSLGGSGAPPPPPMPPPPLGSPFPVISSSMGSPGLPPPAPPGFSGPVSSPQINSTVSLPGGGSGPPEDVKPPVLGVRGLHCPPPPGGPGAGKRLCAICGDRSSGKHYGVYSCEGCKGFFKRTIRKDLTYSCRDNKDCTVDKRQRNRCQYCRYQKCLATGMKREAVQEERQRGKDKDGDGEGAGGAPEEMPVDRILEAELAVEQKSDQGVEGPGGTGGSGSSPNDPVTNICQAADKQLFTLVEWAKRIPHFSSLPLDDQVILLRAGWNELLIASFSHRSIDVRDGILLATGLHVHRNSAHSAGVGAIFDRVLTELVSKMRDMRMDKTELGCLRAIILFNPDAKGLSNPSEVEVLREKVYASLETYCKQKYPEQQGRFAKLLLRLPALRSIGLKCLEHLFFFKLIGDTPIDTFLMEMLEAPHQLA | 0.0 | – | 0.00 | 54.3 | 0.9 | 0.86 | 4.4 | 1.0 | 0.99 |
| RORb: RAR-related Orphan Receptor β (NR1F2), cDNA driver (protein, UniProt Q92753 1-470, looked up) Nuclear receptor ROR-beta: MCENQLKTKADATAQIEVIPCKICGDKSSGIHYGVITCEGCKGFFRRSQQNNASYSCPRQRNCLIDRTNRNRCQHCRLQKCLALGMSRDAVKFGRMSKKQRDSLYAEVQKHQQRLQEQRQQQSGEAEALARVYSSSISNGLSNLNNETSGTYANGHVIDLPKSEGYYNVDSGQPSPDQSGLDMTGIKQIKQEPIYDLTSVPNLFTYSSFNNGQLAPGITMTEIDRIAQNIIKSHLETCQYTMEELHQLAWQTHTYEEIKAYQSKSREALWQQCAIQITHAIQYVVEFAKRITGFMELCQNDQILLLKSGCLEVVLVRMCRAFNPLNNTVLFEGKYGGMQMFKALGSDDLVNEAFDFAKNLCSLQLTEEEIALFSSAVLISPDRAWLIEPRKVQKLQEKIYFALQHVIQKNHLDDETLAKLIAKIPTITAVCNLHGEKLQVFKQSHPEIVNTLFPPLYKELFNPDCATGCK | 1.6 | 176.3 | 1.65 | 73.9 | 1.2 | 1.17 | 6.4 | 1.4 | 1.44 |
| CAR: Constitutive Androstane Receptor (NR1I3), cDNA driver (protein, UniProt Q14994 1-352, looked up) Nuclear receptor subfamily 1 …: MASREDELRNCVVCGDQATGYHFNALTCEGCKGFFRRTVSKSIGPTCPFAGSCEVSKTQRRHCPACRLQKCLDAGMRKDMILSAEALALRRAKQAQRRAQQTPVQLSKEQEELIRTLLGAHTRHMGTMFEQFVQFRPPAHLFIHHQPLPTLAPVLPLVTHFADINTFMVLQVIKFTKDLPVFRSLPIEDQISLLKGAAVEICHIVLNTTFCLQTQNFLCGPLRYTIEDGARVSPTVGFQVEFLELLFHFHGTLRKLQLQEPEYVLLAAMALFSPDRPGVTQRDEIDQLQEEMALTLQSYIKGQQRRPRDRFLYAKLLGLLAELRSINEAYGYQIQHIQGLSAMMPLLQEICS | 1.1 | 115.7 | 1.08 | 51.2 | 0.8 | 0.81 | 4.5 | 1.0 | 1.01 |
| HNF4g: Hepatocyte Nuclear Factor γ (NR2A2), cDNA driver (protein, UniProt Q14541 1-408, looked up) Hepatocyte nuclear factor …: MNTTDNGVNCLCAICGDRATGKHYGASSCDGCKGFFRRSIRKSHVYSCRFSRQCVVDKDKRNQCRYCRLRKCFRAGMKKEAVQNERDRISTRRSTFDGSNIPSINTLAQAEVRSRQISVSSPGSSTDINVKKIASIGDVCESMKQQLLVLVEWAKYIPAFCELPLDDQVALLRAHAGEHLLLGATKRSMMYKDILLLGNNYVIHRNSCEVEISRVANRVLDELVRPFQEIQIDDNEYACLKAIVFFDPDAKGLSDPVKIKNMRFQVQIGLEDYINDRQYDSRGRFGELLLLLPTLQSITWQMIEQIQFVKLFGMVKIDNLLQEMLLGGASNDGSHLHHPMHPHLSQDPLTGQTILLGPMSTLVHADQISTPETPLPSPPQGSGQEQYKIAANQASVISHQHLSKQKQL | 1.2 | 128.6 | 1.20 | 67.2 | 1.1 | 1.06 | 15.6 | 3.5 | 3.49 |
| TR2: Testicular Orphan Nuclear Receptor 2 (NR2C1), cDNA driver (protein, UniProt P13056 1-603, looked up) Nuclear receptor subfamily 2 …: MATIEEIAHQIIEQQMGEIVTEQQTGQKIQIVTALDHNTQGKQFILTNHDGSTPSKVILARQDSTPGKVFLTTPDAAGVNQLFFTTPDLSAQHLQLLTDNSPDQGPNKVFDLCVVCGDKASGRHYGAVTCEGCKGFFKRSIRKNLVYSCRGSKDCIINKHHRNRCQYCRLQRCIAFGMKQDSVQCERKPIEVSREKSSNCAASTEKIYIRKDLRSPLTATPTFVTDSESTRSTGLLDSGMFMNIHPSGVKTESAVLMTSDKAESCQGDLSTLANVVTSLANLGKTKDLSQNSNEMSMIESLSNDDTSLCEFQEMQTNGDVSRAFDTLAKALNPGESTACQSSVAGMEGSVHLITGDSSINYTEKEGPLLSDSHVAFRLTMPSPMPEYLNVHYIGESASRLLFLSMHWALSIPSFQALGQENSISLVKAYWNELFTLGLAQCWQVMNVATILATFVNCLHNSLQQDKMSTERRKLLMEHIFKLQEFCNSMVKLCIDGYEYAYLKAIVLFSPDHPSLENMEQIEKFQEKAYVEFQDYITKTYPDDTYRLSRLLLRLPALRLMNATITEELFFKGLIGNIRIDSVIPHILKMEPADYNSQIIGHSI | 2.9 | 311.2 | 2.91 | 83.1 | 1.3 | 1.31 | 14.8 | 3.3 | 3.32 |
| TR4: Testicular Orphan Nuclear Receptor 4 (NR2C2), cDNA driver (protein, UniProt P49116 1-596, looked up) Nuclear receptor subfamily 2 …: MTSPSPRIQIISTDSAVASPQRIQIVTDQQTGQKIQIVTAVDASGSPKQQFILTSPDGAGTGKVILASPETSSAKQLIFTTSDNLVPGRIQIVTDSASVERLLGKTDVQRPQVVEYCVVCGDKASGRHYGAVSCEGCKGFFKRSVRKNLTYSCRSNQDCIINKHHRNRCQFCRLKKCLEMGMKMESVQSERKPFDVQREKPSNCAASTEKIYIRKDLRSPLIATPTFVADKDGARQTGLLDPGMLVNIQQPLIREDGTVLLATDSKAETSQGALGTLANVVTSLANLSESLNNGDTSEIQPEDQSASEITRAFDTLAKALNTTDSSSSPSLADGIDTSGGGSIHVISRDQSTPIIEVEGPLLSDTHVTFKLTMPSPMPEYLNVHYICESASRLLFLSMHWARSIPAFQALGQDCNTSLVRACWNELFTLGLAQCAQVMSLSTILAAIVNHLQNSIQEDKLSGDRIKQVMEHIWKLQEFCNSMAKLDIDGYEYAYLKAIVLFSPDHPGLTSTSQIEKFQEKAQMELQDYVQKTYSEDTYRLARILVRLPALRLMSSNITEELFFTGLIGNVSIDSIIPYILKMETAEYNGQITGASL | 2.1 | 229.9 | 2.15 | 213.9 | 3.4 | 3.38 | 56.0 | 12.6 | 12.55 |
